Test results published in US5595877, “Methods of producing nucleic acid ligands” (NeXstar Pharmaceuticals, Inc.).

Target: HIV-1 reverse transcriptase (HIV-RT) (HIV-1, UniProt P04585;P04585 P04585:588-1147,P04585:588-1027)
Test: footprint; chemical modification protection and modification interference; 200 mM KOAc, 50 mM Tris-HCl pH 7.7, 37 C
Details: pseudoknot
Description: Affinity assays with labeled RNA and HIV-RT. Model RNAs for refinement of the 5' and 3' boundaries and for determination of the effect of substitutions were labeled during transcription with T7 RNA polymerase as described in Tuerk et al. (1990) except that a-32P-ATP was used, in reactions of 0.5 mM C,G, and UTP with 0.05 mM ATP. Synthetic oligonucleotides and phosphatased transcripts (as in Tuerk et al., 1990) were kinased as described in Gauss et al. (1987). All RNA-protein binding reactions were done in a "binding buffer" of 200 mM KOAc, 50 mM Tris-HCl pH 7.7, 10 mM dithiothreitol with exceptions noted for chemical protection experiments below. RNA and protein dilutions were mixed and stored on ice for 30 minutes then transferred to 37° C. for 5 minutes. […] Each reaction was suctioned through a pre-wet (with binding buffer) nitrocellulose filter and rinsed with 3 mls of binding buffer after which it was dried and counted for assays or subjected to elution and assayed for chemical modification. In comparisons of binding affinity, results were plotted and the protein concentration at which half-maximal binding occurred (the approximate Kd in conditions of protein excess) was determined graphically.
Selection of modified RNAs by HIV-RT. […] The extent of modification interference by ENU was determined by densitometric scanning of films using an LKB laser densitomer.

B1: lengthened ligand B RNA (ssRNA)
RNA: GGUCCGAAGUGCAACGGGAAAAUGCACUAUGAAAGAAUUUUAUAUCUCUAUUGAAAC
Q: Does B1 bind?
A: binds
